From the supplement of paper PMC9112550, “Optimization of the antimicrobial peptide Bac7 by deep mutational scanning” (BMC Biology, 2022)

Test system: Escherichia coli TOP10
Assay: shrunken log2 fold change of peptide-encoding DNA abundance (4.5 h post-induction vs induction); higher = less antimicrobial activity (less host growth inhibition)
Conditions: time post-induction: 4.5 h; library: site-saturation at positions 5, 18, 19, 20
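Note: peptides expressed intracellularly from a pBAD plasmid library in pooled LB shake-flask culture, induced with 0.3% L-arabinose, DNA abundance read by NGS, three biological replicates, DESeq2 with apeglm shrinkage.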

| Sequence | shrunken log2 fold change |
| --- | --- |
| RRIRQRPPRLPRPRPRPTQGPRP | 2.34 |
| RRIRCRPPRLPRPRPRPPHSPRP | 0.395 |
| RRIRLRPPRLPRPRPRPDLSPRP | -0.112 |
| RRIRKRPPRLPRPRPRPNMHPRP | 0.19 |
| RRIRDRPPRLPRPRPRPQNAPRP | -0.111 |
| RRIRWRPPRLPRPRPRPNYKPRP | -0.552 |
| RRIRQRPPRLPRPRPRPKDSPRP | -0.135 |
| RRIRERPPRLPRPRPRPLNHPRP | -0.443 |
| RRIRKRPPRLPRPRPRPSNGPRP | -0.00174 |
| RRIRVRPPRLPRPRPRPGPFPRP | -0.0278 |
| RRIRQRPPRLPRPRPRPRVIPRP | 0.113 |
| RRIRARPPRLPRPRPRPKQMPRP | 0.439 |
| RRIRERPPRLPRPRPRPYFRPRP | -0.622 |
| RRIRFRPPRLPRPRPRPRPKPRP | 0.98 |
| RRIRERPPRLPRPRPRPEACPRP | -0.0166 |
| RRIRPRPPRLPRPRPRPTDLPRP | -0.0166 |
| RRIRIRPPRLPRPRPRPDWRPRP | 0.194 |
| RRIRNRPPRLPRPRPRPPMEPRP | -0.203 |
| RRIRHRPPRLPRPRPRPADIPRP | -0.102 |
| RRIRERPPRLPRPRPRPHPLPRP | -0.0971 |
| RRIRQRPPRLPRPRPRPPPIPRP | 0.467 |
| RRIRCRPPRLPRPRPRPCQYPRP | 0.0234 |
| RRIRHRPPRLPRPRPRPWITPRP | -0.118 |
| RRIRLRPPRLPRPRPRPQWSPRP | -0.0199 |
| RRIRARPPRLPRPRPRPKSQPRP | 0.286 |

| Sequence | shrunken log2 fold change |
| --- | --- |
| RRIRQRPPRLPRPRPRPVKKPRP | -0.0152 |
| RRIRNRPPRLPRPRPRPVVWPRP | 0.55 |
| RRIRFRPPRLPRPRPRPTNLPRP | -0.291 |
| RRIRARPPRLPRPRPRPGNCPRP | 0.061 |
| RRIRQRPPRLPRPRPRPTFQPRP | 0.00826 |
| RRIRNRPPRLPRPRPRPGYVPRP | -0.077 |
| RRIRWRPPRLPRPRPRPFQTPRP | -0.00783 |
| RRIRPRPPRLPRPRPRPMTGPRP | -0.239 |
| RRIRMRPPRLPRPRPRPQFMPRP | -0.241 |
| RRIRIRPPRLPRPRPRPENYPRP | -0.405 |
| RRIRNRPPRLPRPRPRPMELPRP | -0.182 |
| RRIRGRPPRLPRPRPRPQCGPRP | 0.601 |
| RRIRWRPPRLPRPRPRPIYAPRP | -0.0827 |
| RRIRQRPPRLPRPRPRPTTYPRP | -0.282 |
| RRIRGRPPRLPRPRPRPRVNPRP | 0.394 |
| RRIRGRPPRLPRPRPRPQLMPRP | 0.509 |
| RRIRPRPPRLPRPRPRPGDTPRP | -0.0266 |
| RRIRWRPPRLPRPRPRPYHQPRP | -0.0735 |
| RRIRCRPPRLPRPRPRPEEVPRP | 0.362 |
| RRIRNRPPRLPRPRPRPIACPRP | -0.00434 |
| RRIRYRPPRLPRPRPRPWMAPRP | -0.288 |
| RRIRTRPPRLPRPRPRPQPFPRP | 0.0325 |
| RRIRPRPPRLPRPRPRPGHGPRP | 0.296 |
| RRIRARPPRLPRPRPRPVMIPRP | 0.0471 |
| RRIRCRPPRLPRPRPRPTDWPRP | 0.169 |

| Sequence | shrunken log2 fold change |
| --- | --- |
| RRIRSRPPRLPRPRPRPMKNPRP | -0.145 |
| RRIRYRPPRLPRPRPRPVWCPRP | -0.0399 |
| RRIRLRPPRLPRPRPRPPMAPRP | 0.0265 |
| RRIRVRPPRLPRPRPRPVRPPRP | 0.555 |
| RRIRHRPPRLPRPRPRPANIPRP | -0.291 |
| RRIRQRPPRLPRPRPRPQMYPRP | -0.0131 |
| RRIRARPPRLPRPRPRPGGEPRP | 0.694 |
| RRIRRRPPRLPRPRPRPQPDPRP | 0.317 |
| RRIRDRPPRLPRPRPRPHRRPRP | -0.247 |
| RRIRERPPRLPRPRPRPMLIPRP | -0.266 |
| RRIRFRPPRLPRPRPRPARCPRP | 0.44 |
| RRIRLRPPRLPRPRPRPLLPPRP | 0.368 |
| RRIRGRPPRLPRPRPRPTHIPRP | 0.255 |
| RRIRRRPPRLPRPRPRPWQIPRP | 0.0297 |
| RRIRSRPPRLPRPRPRPTEFPRP | 0.153 |
| RRIRVRPPRLPRPRPRPMKLPRP | -0.0169 |
| RRIRGRPPRLPRPRPRPGRDPRP | 0.358 |
| RRIRKRPPRLPRPRPRPQPGPRP | 0.406 |
| RRIRPRPPRLPRPRPRPCRWPRP | 0.0987 |
| RRIRSRPPRLPRPRPRPFKNPRP | -0.378 |
| RRIRVRPPRLPRPRPRPIGCPRP | -0.0514 |
| RRIRDRPPRLPRPRPRPKQLPRP | 0.217 |
| RRIRIRPPRLPRPRPRPFVDPRP | -0.65 |
| RRIRQRPPRLPRPRPRPNKPPRP | -0.195 |
| RRIRCRPPRLPRPRPRPEYDPRP | -0.173 |

| Sequence | shrunken log2 fold change |
| --- | --- |
| RRIRPRPPRLPRPRPRPMVMPRP | -0.0504 |
| RRIRHRPPRLPRPRPRPTVLPRP | -0.109 |
| RRIRCRPPRLPRPRPRPTDEPRP | 2.52 |
| RRIRSRPPRLPRPRPRPPMQPRP | 0.268 |
| RRIRCRPPRLPRPRPRPTMFPRP | -0.2 |
| RRIRHRPPRLPRPRPRPQSVPRP | -0.267 |
| RRIRSRPPRLPRPRPRPPTSPRP | 0.0457 |
| RRIRERPPRLPRPRPRPVAFPRP | -0.0756 |
| RRIRSRPPRLPRPRPRPLNWPRP | -0.0815 |
| RRIRCRPPRLPRPRPRPGGSPRP | 0.0334 |
| RRIRERPPRLPRPRPRPAVEPRP | 0.108 |
| RRIRLRPPRLPRPRPRPLFCPRP | -0.142 |
| RRIRRRPPRLPRPRPRPFNPPRP | -0.277 |
| RRIRRRPPRLPRPRPRPVLQPRP | 0.0941 |
| RRIRTRPPRLPRPRPRPAWDPRP | 0.454 |
| RRIRTRPPRLPRPRPRPEYEPRP | -0.0445 |
| RRIRWRPPRLPRPRPRPLYEPRP | -0.255 |
| RRIRMRPPRLPRPRPRPPYLPRP | 0.204 |
| RRIRRRPPRLPRPRPRPWTCPRP | 0.0743 |
| RRIRIRPPRLPRPRPRPCNNPRP | -0.457 |
| RRIRHRPPRLPRPRPRPMYNPRP | -0.833 |
| RRIRDRPPRLPRPRPRPGYGPRP | -0.0481 |
| RRIRGRPPRLPRPRPRPQRKPRP | 0.471 |
| RRIRYRPPRLPRPRPRPYKHPRP | -1.18 |
| RRIRRRPPRLPRPRPRPAAQPRP | 0.462 |

| Sequence | shrunken log2 fold change |
| --- | --- |
| RRIRFRPPRLPRPRPRPIINPRP | -0.869 |
| RRIRNRPPRLPRPRPRPEINPRP | 0.0636 |
| RRIRARPPRLPRPRPRPTILPRP | 0.344 |
| RRIRWRPPRLPRPRPRPEFKPRP | 0.0019 |
| RRIRGRPPRLPRPRPRPPQTPRP | 1.31 |
| RRIRFRPPRLPRPRPRPFMTPRP | -0.333 |
| RRIRARPPRLPRPRPRPIMNPRP | -0.151 |
| RRIRRRPPRLPRPRPRPNMCPRP | -0.368 |
| RRIRCRPPRLPRPRPRPTHTPRP | 0.388 |
| RRIRDRPPRLPRPRPRPTPMPRP | 0.234 |
| RRIRIRPPRLPRPRPRPHSNPRP | -0.502 |
| RRIRDRPPRLPRPRPRPPLWPRP | 0.228 |
| RRIRPRPPRLPRPRPRPAWLPRP | 0.513 |
| RRIRIRPPRLPRPRPRPPWIPRP | -0.173 |
| RRIRTRPPRLPRPRPRPLTGPRP | -0.0139 |
| RRIRVRPPRLPRPRPRPHMCPRP | -0.301 |
| RRIRNRPPRLPRPRPRPFDEPRP | -0.305 |
| RRIRPRPPRLPRPRPRPIKLPRP | -0.0641 |
| RRIRMRPPRLPRPRPRPCIKPRP | 0.0207 |
| RRIRIRPPRLPRPRPRPWKPPRP | -0.093 |
| RRIRCRPPRLPRPRPRPSGQPRP | -0.0552 |
| RRIRMRPPRLPRPRPRPIIRPRP | 0.0027 |
| RRIRQRPPRLPRPRPRPDCVPRP | -0.0384 |
| RRIRWRPPRLPRPRPRPDHRPRP | -0.0843 |
| RRIRDRPPRLPRPRPRPINKPRP | -0.287 |
